Data: publication PMC3686713

Tested on: OmpR (phosphorylated with acetyl phosphate) (Yersinia pseudotuberculosis IP31758)
Experiment: EMSA

Substance: ompF promoter
- binding: 20 nM

Substance: T6SS-4 promoter
- binding: 40 nM
